Literature values, collected in US10920265B2, “Compounds and methods for detection of enzymes that remove methyl succinyl groups from epsilon-amino lysine moieties” (Enzo Life Sciences, Inc., priority 2011, dated 2021).
No end group written: not given here.

Columns and labels:
Conditions in all cases: varied NAD^+, Du et al., 2009; cited from earlier work
SIRT1 = target: T1, SIRT1 (Homo sapiens, UniProt Q96EB6)
T1 construct: purchased ENZO Life Sciences BML-SE239
T1 sequence (Q96EB6 1-747): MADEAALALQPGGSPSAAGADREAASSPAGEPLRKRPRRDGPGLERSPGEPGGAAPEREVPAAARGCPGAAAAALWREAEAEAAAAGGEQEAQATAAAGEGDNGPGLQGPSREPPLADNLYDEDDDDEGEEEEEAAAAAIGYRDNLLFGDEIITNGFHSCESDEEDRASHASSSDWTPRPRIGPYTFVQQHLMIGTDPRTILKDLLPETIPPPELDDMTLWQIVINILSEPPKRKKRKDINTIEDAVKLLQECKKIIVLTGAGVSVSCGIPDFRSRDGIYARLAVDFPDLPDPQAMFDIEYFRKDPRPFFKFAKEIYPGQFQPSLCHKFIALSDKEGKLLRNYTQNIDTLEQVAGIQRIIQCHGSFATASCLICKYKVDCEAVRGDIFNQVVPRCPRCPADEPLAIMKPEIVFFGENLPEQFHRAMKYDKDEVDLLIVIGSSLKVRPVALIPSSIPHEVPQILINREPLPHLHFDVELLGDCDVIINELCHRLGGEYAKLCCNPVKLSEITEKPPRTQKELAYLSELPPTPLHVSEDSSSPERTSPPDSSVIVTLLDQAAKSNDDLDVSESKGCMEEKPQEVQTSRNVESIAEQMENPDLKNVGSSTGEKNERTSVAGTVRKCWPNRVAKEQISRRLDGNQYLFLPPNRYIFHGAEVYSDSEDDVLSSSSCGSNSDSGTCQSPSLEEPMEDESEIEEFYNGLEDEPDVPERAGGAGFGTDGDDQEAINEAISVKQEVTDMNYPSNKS

SIRT2 = target: T2, SIRT2 (Homo sapiens, UniProt Q8IXJ6)
T2 sequence (Q8IXJ6 1-389): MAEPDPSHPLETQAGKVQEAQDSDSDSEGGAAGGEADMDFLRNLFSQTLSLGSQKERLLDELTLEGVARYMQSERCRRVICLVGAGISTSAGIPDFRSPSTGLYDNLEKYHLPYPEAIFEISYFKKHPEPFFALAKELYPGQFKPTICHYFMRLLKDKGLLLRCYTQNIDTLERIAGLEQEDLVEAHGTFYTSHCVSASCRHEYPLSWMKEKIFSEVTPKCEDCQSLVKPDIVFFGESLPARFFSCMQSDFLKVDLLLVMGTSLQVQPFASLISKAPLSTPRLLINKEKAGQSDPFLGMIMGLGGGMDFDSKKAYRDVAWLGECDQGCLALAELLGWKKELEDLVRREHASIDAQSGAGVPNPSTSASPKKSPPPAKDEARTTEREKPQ

SIRT3 = target: T3, SIRT3 (Homo sapiens, UniProt Q9NTG7)
T3 construct: purchased ENZO Life Sciences BML-SE270
T3 sequence (Q9NTG7 1-399): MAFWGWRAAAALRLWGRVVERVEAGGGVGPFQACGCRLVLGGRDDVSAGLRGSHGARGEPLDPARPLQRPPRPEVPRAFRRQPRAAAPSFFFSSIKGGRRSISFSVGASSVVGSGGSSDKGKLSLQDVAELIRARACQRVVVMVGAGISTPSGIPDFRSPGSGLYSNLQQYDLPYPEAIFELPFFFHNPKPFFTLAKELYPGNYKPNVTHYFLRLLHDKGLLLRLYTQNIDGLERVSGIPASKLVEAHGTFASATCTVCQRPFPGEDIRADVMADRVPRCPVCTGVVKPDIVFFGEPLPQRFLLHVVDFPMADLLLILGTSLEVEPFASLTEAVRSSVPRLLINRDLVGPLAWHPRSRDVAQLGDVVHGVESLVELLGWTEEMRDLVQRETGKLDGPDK

SIRT5 = target: T4, SIRT5 (Homo sapiens, UniProt Q9NXA8); set-up: purchased Enzo Life Sciences BML-SE555
T4 sequence (Q9NXA8 37-310): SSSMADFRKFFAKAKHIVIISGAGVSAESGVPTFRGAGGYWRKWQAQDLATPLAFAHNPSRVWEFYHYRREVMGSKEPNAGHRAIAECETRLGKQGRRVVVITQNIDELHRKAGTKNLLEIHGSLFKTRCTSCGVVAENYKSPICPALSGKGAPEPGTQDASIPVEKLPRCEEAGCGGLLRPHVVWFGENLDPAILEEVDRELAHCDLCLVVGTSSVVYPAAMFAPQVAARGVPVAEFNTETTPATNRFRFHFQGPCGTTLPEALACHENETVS

For “Hist. H3 4-15, K9Ac: unlabeled peptide, histone H3 residues 4-15 acetylated on lysine-9 (KQTARK(Ac)STGGKA; UniProt P68431 5-16, looked up, fragment)”, the kcat (SIRT1) is listed as 0.079 s⁻¹, the kcat (SIRT2) is listed as 0.021 s⁻¹ and the kcat (SIRT3) is listed as 0.009 s⁻¹. The kcat (SIRT5) was 0.003 s⁻¹.
